Test results from patent US20230330254A1, “ANTI-GLP1R ANTIBODY-TETHERED DRUG CONJUGATES COMPRISING GLP1 PEPTIDOMIMETICS AND USES THEREOF” (Regeneron Pharmaceuticals, Inc., priority 2022, published 2023).
Where two headings read alike, the source gives them in different places.

Key:
Assay in all cases: cell-based or functional assay
[1] = biological target: full-length human gastric inhibitory polypeptide receptor on HEK293/CRE-Luc/hGIPR cells (human) (UniProt P48546)
[2] = biological target: full-length human GLP1R on HEK293/CRE-Luc/hGLP1R cells (human) (UniProt P43220)
Sequence of full-length human GLP1R on HEK293/CRE-Luc/hGLP1R cells (human) (P43220 24-463): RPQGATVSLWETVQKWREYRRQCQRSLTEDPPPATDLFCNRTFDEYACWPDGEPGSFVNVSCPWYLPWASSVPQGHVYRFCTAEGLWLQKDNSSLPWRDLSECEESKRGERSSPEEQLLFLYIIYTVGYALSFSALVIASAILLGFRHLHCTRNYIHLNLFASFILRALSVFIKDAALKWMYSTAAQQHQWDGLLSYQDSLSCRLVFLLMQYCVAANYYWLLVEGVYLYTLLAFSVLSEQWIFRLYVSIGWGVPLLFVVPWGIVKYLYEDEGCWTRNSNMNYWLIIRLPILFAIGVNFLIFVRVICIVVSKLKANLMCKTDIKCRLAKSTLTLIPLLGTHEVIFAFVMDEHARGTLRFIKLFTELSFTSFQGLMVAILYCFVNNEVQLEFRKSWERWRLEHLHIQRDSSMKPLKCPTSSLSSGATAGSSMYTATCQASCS

[3] = biological target: full-length human glucagon receptor on HEK293/CRE-Luc/hGCGR cells (human) (UniProt P47871)
Sequence of full-length human glucagon receptor on HEK293/CRE-Luc/hGCGR cells (human) (P47871 26-477): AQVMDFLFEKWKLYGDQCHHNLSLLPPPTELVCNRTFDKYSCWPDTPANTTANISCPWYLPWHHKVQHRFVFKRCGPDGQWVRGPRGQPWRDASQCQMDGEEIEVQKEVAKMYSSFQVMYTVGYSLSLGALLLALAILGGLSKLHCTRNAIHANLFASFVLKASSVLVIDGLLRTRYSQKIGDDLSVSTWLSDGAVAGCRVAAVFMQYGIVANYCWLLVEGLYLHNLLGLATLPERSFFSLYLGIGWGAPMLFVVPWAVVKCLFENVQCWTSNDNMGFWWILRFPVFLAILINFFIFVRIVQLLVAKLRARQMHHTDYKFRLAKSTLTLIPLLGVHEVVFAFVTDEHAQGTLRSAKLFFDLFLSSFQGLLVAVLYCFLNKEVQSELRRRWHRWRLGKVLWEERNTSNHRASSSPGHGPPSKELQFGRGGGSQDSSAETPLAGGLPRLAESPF

[4] = biological target: full-length human glucagon-like peptide 2 receptor on HEK293/CRE-Luc/hGLP2R cells (human) (UniProt O95838)
Sequence of full-length human glucagon-like peptide 2 receptor on HEK293/CRE-Luc/hGLP2R cells (human) (O95838 whole entry): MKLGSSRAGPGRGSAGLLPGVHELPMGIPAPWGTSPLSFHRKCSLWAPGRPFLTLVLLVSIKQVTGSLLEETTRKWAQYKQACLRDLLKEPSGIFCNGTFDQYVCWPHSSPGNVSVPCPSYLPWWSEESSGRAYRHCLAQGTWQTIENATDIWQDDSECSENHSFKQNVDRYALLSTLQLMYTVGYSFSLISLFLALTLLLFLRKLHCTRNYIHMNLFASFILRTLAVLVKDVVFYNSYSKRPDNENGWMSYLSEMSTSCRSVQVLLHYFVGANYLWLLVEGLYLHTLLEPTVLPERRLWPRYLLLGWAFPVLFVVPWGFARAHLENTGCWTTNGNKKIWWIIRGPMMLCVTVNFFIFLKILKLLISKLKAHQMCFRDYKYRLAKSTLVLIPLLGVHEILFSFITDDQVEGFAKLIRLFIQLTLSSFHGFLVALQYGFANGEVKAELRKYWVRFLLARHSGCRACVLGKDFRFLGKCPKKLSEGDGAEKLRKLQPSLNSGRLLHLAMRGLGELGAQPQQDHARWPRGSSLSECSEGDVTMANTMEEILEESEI

[5] = biological target: full-length cynomolgus GLP1R on HEK293/CRE-Luc/mfGLP1R cells (cynomolgus) (UniProt F8V479)
[6] = biological target: full-length human gastric inhibitory polypeptide receptor on HEK293/CRE-Luc/hGIPR cells (human) (UniProt P48546); remark: listed apart in the source
[7] = biological target: full-length human glucagon-like peptide 2 receptor on HEK293/CRE-Luc/hGLP2R cells (human) (UniProt O95838); remark: listed apart in the source
[8] = biological target: full-length human GLP1R on HEK293/CRE-Luc/hGLP1R cells (human) (UniProt P43220); remark: listed apart in the source
[9] = biological target: full-length human glucagon receptor on HEK293/CRE-Luc/hGCGR cells (human) (UniProt P47871); remark: listed apart in the source
[10] = biological target: full-length cynomolgus GLP1R on HEK293/CRE-Luc/mfGLP1R cells (cynomolgus) (UniProt F8V479); remark: listed apart in the source
Target sequence in this assay (F8V479 entry or part of it): as the sequence (P43220 24-463) above, with S112N, F120S, S202G, L205V, L237F, W241R, I249V counted along it

Sequence of human GCG (glucagon) (P01275 53-81 limits assumed): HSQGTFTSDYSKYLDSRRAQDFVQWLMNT
Sequence of human GLP2 (P01275 146-178 limits assumed): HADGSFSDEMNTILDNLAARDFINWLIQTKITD
Sequence of full-length human gastric inhibitory polypeptide receptor on HEK293/CRE-Luc/hGIPR cells (human) (P48546 22-466): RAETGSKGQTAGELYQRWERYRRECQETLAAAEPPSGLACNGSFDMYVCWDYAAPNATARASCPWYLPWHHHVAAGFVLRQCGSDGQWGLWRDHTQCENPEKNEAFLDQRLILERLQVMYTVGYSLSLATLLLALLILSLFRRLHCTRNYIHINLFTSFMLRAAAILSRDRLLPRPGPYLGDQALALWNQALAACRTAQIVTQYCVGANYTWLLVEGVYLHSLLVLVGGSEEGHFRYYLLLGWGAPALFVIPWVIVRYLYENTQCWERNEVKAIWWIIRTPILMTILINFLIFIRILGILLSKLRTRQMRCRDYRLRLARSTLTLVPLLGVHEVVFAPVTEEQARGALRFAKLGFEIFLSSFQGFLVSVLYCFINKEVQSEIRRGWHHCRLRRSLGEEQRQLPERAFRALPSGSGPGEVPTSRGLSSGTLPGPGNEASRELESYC

Substance | CRE-luc EC50 [1] | CRE-luc EC50 [2] | CRE-luc EC50 [3] | CRE-luc EC50 [4] | CRE-luc EC50 [5] | CRE-luc EC50 [6] | CRE-luc EC50 [7] | CRE-luc EC50 [8] | CRE-luc EC50 [9] | CRE-luc EC50 [10]
Isotype control Ab (unconjugated; Q tag none or not stated) (antibody) | > 300 nM | > 300 nM | > 300 nM | > 300 nM | > 300 nM | – | – | – | – | –
human GCG (glucagon) (from UniProt P01275 53-81) (ligand) | > 30 nM | – | – | > 30 nM | – | > 200 nM | > 200 nM | – | – | –
human GIP (from UniProt P09681 52-93) (ligand) | – | > 30 nM | > 30 nM | > 30 nM | – | – | > 200 nM | > 200 nM | > 200 nM | > 200 nM
human GLP1 (reference ligand) (from UniProt P01275 98-128) | > 30 nM | – | > 30 nM | > 30 nM | – | > 200 nM | > 200 nM | – | > 200 nM | –
human GLP2 (from UniProt P01275 146-178) (ligand) | > 30 nM | > 30 nM | > 30 nM | – | – | > 200 nM | – | > 200 nM | > 200 nM | > 200 nM
